{"source": "ChEMBL document CHEMBL1130474", "about": "“Conformationally restricted arginine analogues as inhibitors of human nitric oxide synthase” (Bioorg Med Chem Lett, 1997)", "key": {"[1]": {"substrate": "N=C(N)NCCC[C@H](N)C(=O)O"}, "[2]": {"substrate": "N=C(N)NCCC[C@H](N)C(=O)O", "remark": "listed apart in the source"}}, "data": [{"protein": "Nitric oxide synthase 3 (Homo sapiens), P29474 (protein) MGNLKSVAQEPGPPCGLGLGLGLGLCGKQGPATPAPEPSRAPASLLPPAPEHSPPSSPLTQPPEGPKFPRVKNWEVGSITYDTLSAQAQQDGPCTPRRCLGSLVFPRKLQGRPSPGPPAPEQLLSQARDFINQYYSSIKRSGSQAHEQRLQEVEAEVAATGTYQLRESELVFGAKQAWRNAPRCVGRIQWGKLQVFDARDCRSAQEMFTYICNHIKYATNRGNLRSAITVFPQRCPGRGDFRIWNSQLVRYAGYRQQDGSVRGDPANVEITELCIQHGWTPGNGRFDVLPLLLQAPDDPPELFLLPPELVLEVPLEHPTLEWFAALGLRWYALPAVSNMLLEIGGLEFPAAPFSGWYMSTEIGTRNLCDPHRYNILEDVAVCMDLDTRTTSSLWKDKAAVEINVAVLHSYQLAKVTIVDHHAATASFMKHLENEQKARGGCPADWAWIVPPISGSLTPVFHQEMVNYFLSPAFRYQPDPWKGSAAKGTGITRKKTFKEVANAVKISASLMGTVMAKRVKATILYGSETGRAQSYAQQLGRLFRKAFDPRVLCMDEYDVVSLEHETLVLVVTSTFGNGDPPENGESFAAALMEMSGPYNSSPRPEQHKSYKIRFNSISCSDPLVSSWRRKRKESSNTDSAGALGTLRFCVFGLGSRAYPHFCAFARAVDTRLEELGGERLLQLGQGDELCGQEEAFRGWAQAAFQAACETFCVGEDAKAAARDIFSPKRSWKRQRYRLSAQAEGLQLLPGLIHVHRRKMFQATIRSVENLQSSKSTRATILVRLDTGGQEGLQYQPGDHIGVCPPNRPGLVEALLSRVEDPPAPTEPVAVEQLEKGSPGGPPPGWVRDPRLPPCTLRQALTFFLDITSPPSPQLLRLLSTLAEEPREQQELEALSQDPRRYEEWKWFRCPTLLEVLEQFPSVALPAPLLLTQLPLLQPRYYSVSSAPSTHPGEIHLTVAVLAYRTQDGLGPLHYGVCSTWLSQLKPGDPVPCFIRGAPSFRLPPDPSLPCILVGPGTGIAPFRGFWQERLHDIESKGLQPTPMTLVFGCRCSQLDHLYRDEVQNAQQRGVFGRVLTAFSREPDNPKTYVQDILRTELAAEVHRVLCLERGHMFVCGDVTMATNVLQTVQRILATEGDMELDEAGDVIGVLRDQQRYHEDIFGLTLRTQEVTSRIRTQSFSLQERQLRGAVPWAFDPPGSDTNSP", "values": [{"measurement": "Km", "setting": "[1]", "result": 0.9, "unit": "µM"}]}, {"protein": "Nitric oxide synthase 1 (Homo sapiens), P29475 (protein) MEDHMFGVQQIQPNVISVRLFKRKVGGLGFLVKERVSKPPVIISDLIRGGAAEQSGLIQAGDIILAVNGRPLVDLSYDSALEVLRGIASETHVVLILRGPEGFTTHLETTFTGDGTPKTIRVTQPLGPPTKAVDLSHQPPAGKEQPLAVDGASGPGNGPQHAYDDGQEAGSLPHANGLAPRPPGQDPAKKATRVSLQGRGENNELLKEIEPVLSLLTSGSRGVKGGAPAKAEMKDMGIQVDRDLDGKSHKPLPLGVENDRVFNDLWGKGNVPVVLNNPYSEKEQPPTSGKQSPTKNGSPSKCPRFLKVKNWETEVVLTDTLHLKSTLETGCTEYICMGSIMHPSQHARRPEDVRTKGQLFPLAKEFIDQYYSSIKRFGSKAHMERLEEVNKEIDTTSTYQLKDTELIYGAKHAWRNASRCVGRIQWSKLQVFDARDCTTAHGMFNYICNHVKYATNKGNLRSAITIFPQRTDGKHDFRVWNSQLIRYAGYKQPDGSTLGDPANVQFTEICIQQGWKPPRGRFDVLPLLLQANGNDPELFQIPPELVLEVPIRHPKFEWFKDLGLKWYGLPAVSNMLLEIGGLEFSACPFSGWYMGTEIGVRDYCDNSRYNILEEVAKKMNLDMRKTSSLWKDQALVEINIAVLYSFQSDKVTIVDHHSATESFIKHMENEYRCRGGCPADWVWIVPPMSGSITPVFHQEMLNYRLTPSFEYQPDPWNTHVWKGTNGTPTKRRAIGFKKLAEAVKFSAKLMGQAMAKRVKATILYATETGKSQAYAKTLCEIFKHAFDAKVMSMEEYDIVHLEHETLVLVVTSTFGNGDPPENGEKFGCALMEMRHPNSVQEERKSYKVRFNSVSSYSDSQKSSGDGPDLRDNFESAGPLANVRFSVFGLGSRAYPHFCAFGHAVDTLLEELGGERILKMREGDELCGQEEAFRTWAKKVFKAACDVFCVGDDVNIEKANNSLISNDRSWKRNKFRLTFVAEAPELTQGLSNVHKKRVSAARLLSRQNLQSPKSSRSTIFVRLHTNGSQELQYQPGDHLGVFPGNHEDLVNALIERLEDAPPVNQMVKVELLEERNTALGVISNWTDELRLPPCTIFQAFKYYLDITTPPTPLQLQQFASLATSEKEKQRLLVLSKGLQEYEEWKWGKNPTIVEVLEEFPSIQMPATLLLTQLSLLQPRYYSISSSPDMYPDEVHLTVAIVSYRTRDGEGPIHHGVCSSWLNRIQADELVPCFVRGAPSFHLPRNPQVPCILVGPGTGIAPFRSFWQQRQFDIQHKGMNPCPMVLVFGCRQSKIDHIYREETLQAKNKGVFRELYTAYSREPDKPKKYVQDILQEQLAESVYRALKEQGGHIYVCGDVTMAADVLKAIQRIMTQQGKLSAEDAGVFISRMRDDNRYHEDIFGVTLRTYEVTNRLRSESIAFIEESKKDTDEVFSS", "values": [{"measurement": "Km", "setting": "[2]", "result": 1.6, "unit": "µM"}]}]}
